Data as given in the supplement of paper PMC7125110.
± gives the standard error. This sample holds only a part of the variants without activity.

B1: glmS ribozyme (parent)
chain: AUAAAAGCGCCAGAACUACAGAAAUGUAGUUGACGAGGAGGAGGUUUAUCGAAUUUUCGGCGGAUGCCUCCAAA

How the values were obtained:
Conditions in all cases: with glucosamine-6-phosphate
glucosamine-6-phosphate [1] = variants of: B1; test: self-cleavage kobs at 160 uM GlcN6P; higher = faster cleavage; RNA array
How it was run: (§1)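 Ribozyme variants carrying barcodes were transcribed in situ on sequenced MiSeq chips by E. coli RNA polymerase and tracked at 37 °C with a hybridised Cy3 probe. They were exposed to 40 μM to 10 mM glucosamine-6-phosphate in HEPES/KCl/Mg(OAc)2 buffer. kobs came from exponential decay fits of normalised per-tile medians, and kcat and KM from weighted Michaelis–Menten fits.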

glucosamine-6-phosphate [2] = variants of: B1; test: self-cleavage kobs at 640 uM GlcN6P; higher = faster cleavage; RNA array
How it was run: as §1

glucosamine-6-phosphate [3] = variants of: B1; test: self-cleavage kobs at 2500 uM GlcN6P; higher = faster cleavage; RNA array
How it was run: as §1

glucosamine-6-phosphate [4] = variants of: B1; test: self-cleavage kobs at 10000 uM GlcN6P; higher = faster cleavage; RNA array
How it was run: as §1

Variant | self-cleavage kobs at 160 uM GlcN6P (glucosamine-6-phosphate [1]) | self-cleavage kobs at 640 uM GlcN6P (glucosamine-6-phosphate [2]) | self-cleavage kobs at 2500 uM GlcN6P (glucosamine-6-phosphate [3]) | self-cleavage kobs at 10000 uM GlcN6P (glucosamine-6-phosphate [4])
C8A A33U G51A | < 1e-05 s⁻¹ | < 1e-05 s⁻¹ | – | –
G7A U56C | < 1e-05 s⁻¹ | < 1e-05 s⁻¹ | < 1e-05 s⁻¹ | < 1e-05 s⁻¹
C8U G35U G62C | < 1e-05 s⁻¹ | < 1e-05 s⁻¹ | < 1e-05 s⁻¹ | –
A6U G29A U54G | < 1e-05 s⁻¹ | – | – | –
C10A C34G A36G A39C U65A | < 1e-05 s⁻¹ | – | < 1e-05 s⁻¹ | –
C8G G9U G29C G32C A52C | < 1e-05 s⁻¹ | – | < 1e-05 s⁻¹ | –
A6U A12C A53U | < 1e-05 s⁻¹ | 3.14e-05 ± 1.3e-05 s⁻¹ | 4.17e-05 ± 1.6e-05 s⁻¹ | –
A6G U30G C34G | < 1e-05 s⁻¹ | – | – | –
A6U C11A G13U | < 1e-05 s⁻¹ | – | – | –
A6U A14G A15U U31G U55G | < 1e-05 s⁻¹ | < 1e-05 s⁻¹ | < 1e-05 s⁻¹ | –
C8A G13C U30C G41U | < 1e-05 s⁻¹ | – | < 1e-05 s⁻¹ | < 1e-05 s⁻¹
C8A C16U G29U G62A | < 1e-05 s⁻¹ | < 1e-05 s⁻¹ | – | –
G7A G35A G51C | < 1e-05 s⁻¹ | – | < 1e-05 s⁻¹ | –
C8A G35C G62U | < 1e-05 s⁻¹ | < 1e-05 s⁻¹ | < 1e-05 s⁻¹ | –
C10A A14G U69G | 0.000148 ± 5.1e-05 s⁻¹ | 0.000195 ± 7.6e-05 s⁻¹ | 6.53e-05 ± 2.3e-05 s⁻¹ | –
G7C A33C G59A | < 1e-05 s⁻¹ | – | – | –
C8G G51A U55G | < 1e-05 s⁻¹ | < 1e-05 s⁻¹ | – | –
C10A G13U A15G G40U U46G | < 1e-05 s⁻¹ | < 1e-05 s⁻¹ | < 1e-05 s⁻¹ | –
G7U U69C | < 1e-05 s⁻¹ | – | < 1e-05 s⁻¹ | –
C8A A12U C16G G41A C68A | < 1e-05 s⁻¹ | < 1e-05 s⁻¹ | < 1e-05 s⁻¹ | –
A6U C10A A39G G40C C61G C67G | < 1e-05 s⁻¹ | < 1e-05 s⁻¹ | < 1e-05 s⁻¹ | –
G9C C11G C61G G63U | < 1e-05 s⁻¹ | – | < 1e-05 s⁻¹ | –
G9A C10U | < 1e-05 s⁻¹ | < 1e-05 s⁻¹ | < 1e-05 s⁻¹ | < 1e-05 s⁻¹
C8A C34U G40A A52U | < 1e-05 s⁻¹ | < 1e-05 s⁻¹ | < 1e-05 s⁻¹ | < 1e-05 s⁻¹
G9U C16U G29A U45A U54C | < 1e-05 s⁻¹ | – | – | –

Variant | self-cleavage kobs at 160 uM GlcN6P (glucosamine-6-phosphate [1]) | self-cleavage kobs at 640 uM GlcN6P (glucosamine-6-phosphate [2]) | self-cleavage kobs at 2500 uM GlcN6P (glucosamine-6-phosphate [3]) | self-cleavage kobs at 10000 uM GlcN6P (glucosamine-6-phosphate [4])
G9A G32A G43C U56C C68U | < 1e-05 s⁻¹ | < 1e-05 s⁻¹ | < 1e-05 s⁻¹ | –
C10U G13C C16G G32A | < 1e-05 s⁻¹ | – | – | –
A6U G43U U57A | < 1e-05 s⁻¹ | < 1e-05 s⁻¹ | < 1e-05 s⁻¹ | –
A6U C8A C16A | < 1e-05 s⁻¹ | – | – | –
G9U U30G G35U G51A | < 1e-05 s⁻¹ | < 1e-05 s⁻¹ | – | –
C8G G38A | < 1e-05 s⁻¹ | < 1e-05 s⁻¹ | < 1e-05 s⁻¹ | < 1e-05 s⁻¹
C8U A14C | < 1e-05 s⁻¹ | < 1e-05 s⁻¹ | < 1e-05 s⁻¹ | < 1e-05 s⁻¹
G9C C34G C61G | < 1e-05 s⁻¹ | – | < 1e-05 s⁻¹ | < 1e-05 s⁻¹
C8G G13A U54A G62A | < 1e-05 s⁻¹ | < 1e-05 s⁻¹ | – | –
C8A G60A C68A | < 1e-05 s⁻¹ | – | < 1e-05 s⁻¹ | –
A6C C8G G66C | < 1e-05 s⁻¹ | < 1e-05 s⁻¹ | – | –
C8U G37C A39G | < 1e-05 s⁻¹ | < 1e-05 s⁻¹ | < 1e-05 s⁻¹ | < 1e-05 s⁻¹
G9A C50A | < 1e-05 s⁻¹ | < 1e-05 s⁻¹ | < 1e-05 s⁻¹ | < 1e-05 s⁻¹
G7A A48U C71U | < 1e-05 s⁻¹ | < 1e-05 s⁻¹ | < 1e-05 s⁻¹ | –
A6G A64G C67G | < 1e-05 s⁻¹ | < 1e-05 s⁻¹ | < 1e-05 s⁻¹ | –
C8U A36U G40C U56A | < 1e-05 s⁻¹ | – | < 1e-05 s⁻¹ | –
G9U A53C | < 1e-05 s⁻¹ | < 1e-05 s⁻¹ | – | < 1e-05 s⁻¹
G9U U31A U65G | < 1e-05 s⁻¹ | < 1e-05 s⁻¹ | < 1e-05 s⁻¹ | –
C10A G13C C16U G51C | < 1e-05 s⁻¹ | – | – | –
A6G C10G U46G | < 1e-05 s⁻¹ | < 1e-05 s⁻¹ | < 1e-05 s⁻¹ | –
C10U G37A G63A | < 1e-05 s⁻¹ | < 1e-05 s⁻¹ | < 1e-05 s⁻¹ | –
G9C A64C | < 1e-05 s⁻¹ | < 1e-05 s⁻¹ | – | < 1e-05 s⁻¹
A6U A12C U49C U65G C67G | < 1e-05 s⁻¹ | – | – | –
C8G A39U U69A | < 1e-05 s⁻¹ | – | – | –
C10A A14U A52U C70G | 0.00038 ± 0.00011 s⁻¹ | 0.000294 ± 7.4e-05 s⁻¹ | 8.93e-05 ± 3.8e-05 s⁻¹ | –
